# Experimental data reported in patent US20230203156A1 (published 2023).
# T1: cynomolgus CD47 (cynomolgus, UniProt A0A5F8AK49 19-323)
# T1 chain: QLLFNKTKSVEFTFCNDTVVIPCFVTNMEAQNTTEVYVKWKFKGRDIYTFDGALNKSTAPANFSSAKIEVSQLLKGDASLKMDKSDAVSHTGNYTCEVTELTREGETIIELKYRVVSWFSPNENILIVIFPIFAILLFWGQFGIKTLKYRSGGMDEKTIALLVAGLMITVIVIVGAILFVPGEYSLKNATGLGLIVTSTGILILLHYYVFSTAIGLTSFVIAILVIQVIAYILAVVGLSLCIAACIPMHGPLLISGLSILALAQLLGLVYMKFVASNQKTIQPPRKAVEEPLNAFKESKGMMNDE
# Experiments:
# [1] = target: T1, cynomolgus CD47; test: FACS binding, C6-cKT14 cells
# [2] = target: human CD47 (human, UniProt Q08722 19-323); test: FACS binding, C6-hKT14 cells
# [3] = target: T2, human MDR1 (multidrug resistance protein 1) (UniProt P08183 1-1280); test: FACS binding, 293T cells expressing human MDR1
# [4] = target: T2, human MDR1 (multidrug resistance …); test: FACS binding, 293T-hB1 cells
# [5] = target: cynomolgus MDR1 (Macaca fascicularis); test: FACS binding, 293T-cB1 cells
# Sequence of cynomolgus MDR1 (Macaca fascicularis) (chain, as listed by the source): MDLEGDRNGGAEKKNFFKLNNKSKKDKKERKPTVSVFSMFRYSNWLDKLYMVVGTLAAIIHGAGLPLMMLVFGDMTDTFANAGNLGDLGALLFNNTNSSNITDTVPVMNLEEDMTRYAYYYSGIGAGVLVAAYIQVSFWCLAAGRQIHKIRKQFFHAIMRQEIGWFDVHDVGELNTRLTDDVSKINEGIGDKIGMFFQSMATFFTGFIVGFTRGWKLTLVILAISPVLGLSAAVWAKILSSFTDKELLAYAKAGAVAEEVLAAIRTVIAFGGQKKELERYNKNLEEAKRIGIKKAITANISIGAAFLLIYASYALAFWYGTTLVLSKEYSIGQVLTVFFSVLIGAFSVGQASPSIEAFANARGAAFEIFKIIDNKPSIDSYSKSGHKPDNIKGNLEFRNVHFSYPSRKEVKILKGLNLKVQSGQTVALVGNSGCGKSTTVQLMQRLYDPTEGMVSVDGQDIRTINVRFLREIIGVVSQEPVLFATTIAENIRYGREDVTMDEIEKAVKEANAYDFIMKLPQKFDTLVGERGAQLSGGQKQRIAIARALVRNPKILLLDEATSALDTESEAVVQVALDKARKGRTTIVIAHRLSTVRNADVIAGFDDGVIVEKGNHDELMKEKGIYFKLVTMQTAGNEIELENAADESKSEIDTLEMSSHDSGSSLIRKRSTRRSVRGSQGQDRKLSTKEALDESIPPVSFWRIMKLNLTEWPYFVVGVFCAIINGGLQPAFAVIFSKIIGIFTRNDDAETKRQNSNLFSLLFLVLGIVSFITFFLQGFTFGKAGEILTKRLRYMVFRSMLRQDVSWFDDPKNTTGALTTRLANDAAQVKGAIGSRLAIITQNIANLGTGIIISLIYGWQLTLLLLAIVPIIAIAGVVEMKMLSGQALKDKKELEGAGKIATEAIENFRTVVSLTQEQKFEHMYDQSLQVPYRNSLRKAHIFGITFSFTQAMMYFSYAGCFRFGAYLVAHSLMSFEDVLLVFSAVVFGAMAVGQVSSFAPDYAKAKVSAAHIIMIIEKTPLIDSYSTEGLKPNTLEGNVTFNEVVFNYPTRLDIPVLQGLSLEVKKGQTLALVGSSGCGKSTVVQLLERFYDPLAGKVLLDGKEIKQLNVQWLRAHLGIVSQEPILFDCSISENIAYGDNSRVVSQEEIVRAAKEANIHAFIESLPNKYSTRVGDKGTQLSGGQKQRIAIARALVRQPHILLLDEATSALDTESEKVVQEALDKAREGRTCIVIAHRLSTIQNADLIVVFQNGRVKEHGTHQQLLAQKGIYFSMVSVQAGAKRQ
Binder,EC50 [1] [nM],EC50 [2] [nM],EC50 [3] [nM],Kd [4] [nM],Kd [5] [nM]
B1.28DD/KT14KK/28 (antibody) chain 1: EVKLVESGGGLVKPGGSLKLSCAASGFTFGLYTMSWVRQTPERRLEWVATISSGGSNTYYPDSVKGRFTISRDNAKNNLFLQMNSLRSEDTALYYCARYYRYDAWFAYWGQGTLVTVSS chain 2: QVQLVQSGAEVKKPGASVKVSCKASGYTFTNYNMHWVRQAPGQRLEWMGTIYPGNDDTSYNQKFKDRVTITADTSASTAYMELSSLRSEDTAVYYCARGGYRAMDYWGQGTLVTVSS chain 3: DVLLTQTPLSLPVSLGDQASISCRSSQNIVHSTGNTYLDWYLQKPGQSPKLLIYKVSNRFSGVPDRFSGSGSGTDFTLKISRVEAEDLGVYFCFQGSHIPRTFGGGTKLEIK,83,40,,,
"B1.28 (antibody, V domains shown) VH: EVKLVESGGGLVKPGGSLKLSCAASGFTFGLYTMSWVRQTPERRLEWVATISSGGSNTYYPDSVKGRFTISRDNAKNNLFLQMNSLRSEDTALYYCARYYRYDAWFAYWGQGTLVTVSS VL: DVLLTQTPLSLPVSLGDQASISCRSSQNIVHSTGNTYLDWYLQKPGQSPKLLIYKVSNRFSGVPDRFSGSGSGTDFTLKISRVEAEDLGVYFCFQGSHIPRTFGGGTKLEIK",,,4.8,17,97
